The record followed here is publication doi:10.1101/2020.09.09.273011.

For assay [1], the target named is ΔEGF/Lam_Celsr3 (Celsr3-Flag lacking all the EGF repeats and Laminin domains) (mouse) (UniProt Q91ZI0). Kind of assay: co-IP.
In assay [2] the target is ΔLaminin G1_Celsr3 (Celsr3-Flag lacking the Laminin G1 domain) (mouse) (UniProt Q91ZI0). As to the kind of experiment: co-IP.

B1: mouse Frizzled3 (Frizzled3-HA) (receptor)
chain: HSLFSCEPITLRMCQDLPYNTTFMPNLLNHYDQQTAALAMEPFHPMVNLDCSRDFRPFLCALYAPICMEYGRVTLPCRRLCQRAYSECSKLMEMFGVPWPEDMECSRFPDCDEPYPRLVDLNLVGDPTEGAPVAVQRDYGFWCPRELKIDPDLGYSFLHVRDCSPPCPNMYFRREELSFARYFIGLISIICLSATLFTFLTFLIDVTRFRYPERPIIFYAVCYMMVSLIFFIGFLLEDRVACNASSPAQYKASTVTQGSHNKACTMLFMVLYFFTMAGSVWWVILTITWFLAAVPKWGSEAIEKKALLFHASAWGIPGTLTIILLAMNKIEGDNISGVCFVGLYDVDALRYFVLAPLCLYVVVGVSLLLAGIISLNRVRIEIPLEKENQDKLVKFMIRIGVFSILYLVPLLVVIGCYFYEQAYRGIWETTWIQERCREYHIPCPYQVTQMSRPDLILFLMKYLMALIVGIPSIFWVGSKKTCFEWASFFHGRRKKEIVNESRQVLQEPDFAQSLLRDPNTPIIRKSRGTSTQGTSTHASSTQLAMVDDQRSKAGSVHSKVSSYHGSLHRSRDGRYTPCSYRGMEERLPHGSMSRLTDHSRHSSSHRLNEQSRHSSIRDLSNNPMTHITHGTSMNRVIEEDGTSA
As for B1, the percent reduction of the interaction against wild type Celsr3 came to 68% in assay [1] and 66% in assay [2].
